Experimental data taken from patent publication US20210130452A1 (Merck KGaA, published 2021).
“And” between values parts separate entries of the source, which are not always exact repeats. Equal values may be shown once.

What was measured:
human IL-17A [1] = target: T1, human IL-17A (human, UniProt Q16552 24-155, biotinylated with Sulfo-NHS-LC-Biotin in the AlphaScreen assays only); assay: cell-based or functional assay
human IL-17A [2] = target: T1, human IL-17A; assay: AlphaScreen competition, hIL-17A - IL-17RA-Fc;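 note: receptor Fc-fusion plus Acceptor and streptavidin Donor beads incubated with the mixture for 1 h at room temperature before reading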
Method: (§1) To this mixture, the IL-17RA or IL-17RC Fc-fusions, Acceptor beads and the streptavidin Donor beads were added and further incubated for 1 hour at RT.

human IL-17A [3] = target: T1, human IL-17A; assay: AlphaScreen competition, hIL-17A - IL-17RC-Fc;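 note: Read-out after 1 h at room temperature with the receptor Fc-fusion, Acceptor beads and streptavidin-coated Donor beads present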
Method: as §1

human IL-17A [4] = target: T1, human IL-17A; assay: SPR Biacore, hIL-17A on chip; periplasmic extract (*)
Method: (§2) Off-rates of the periplasmic extracts containing anti-IL-17 Nanobodies were measured by Surface Plasmon Resonance (SPR) using a Biacore T100 instrument. […] Periplasmic extracts containing IL-17 neutralizing Nanobodies were injected for 2 minutes at a flow rate of 45 μl/min to allow binding to chip-bound antigen. Next, binding buffer without periplasmic extracts was sent over the chip at the same flow rate to allow spontaneous dissociation of bound Nanobody. From the sensorgrams obtained for the different periplasmic extracts koff-values (k₄) were calculated.

human IL-17F [5] = target: T2, human IL-17F (human, UniProt Q96PD4 31-163, biotinylated with Sulfo-NHS-LC-Biotin in the AlphaScreen assays only); assay: SPR Biacore, hIL-17F on chip; periplasmic extract (*); NB = no binding
T2 construct: also called hIL-17F; recombinant human IL-17F
T2 sequence: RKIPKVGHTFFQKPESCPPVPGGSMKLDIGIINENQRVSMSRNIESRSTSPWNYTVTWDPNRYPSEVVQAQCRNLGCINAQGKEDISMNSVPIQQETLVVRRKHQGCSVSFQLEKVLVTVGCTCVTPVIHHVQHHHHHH
Method: as §2

[6] = target: T3, human IL-17A/F heterodimer (human, UniProt Q16552 24-155; Q96PD4 31-163, limits assumed, biotinylated with Sulfo-NHS-LC-Biotin in the AlphaScreen assays only); assay: SPR Biacore, hIL-17A/F on chip; periplasmic extract (*); NB = no binding
T3 construct: also called hIL-17A/F
T3 sequence (Q16552 24-155 limits assumed, one chain of several): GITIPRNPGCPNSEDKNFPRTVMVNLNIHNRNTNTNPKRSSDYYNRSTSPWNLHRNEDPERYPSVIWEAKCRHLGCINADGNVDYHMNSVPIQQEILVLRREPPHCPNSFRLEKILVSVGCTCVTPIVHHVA
Method: as §2

human IL-17A [7] = target: T4, human IL-17A (human, UniProt Q16552 24-155); assay: cell-based or functional assay
T4 sequence (Q16552 other isoform, or with tags, fused parts or gaps): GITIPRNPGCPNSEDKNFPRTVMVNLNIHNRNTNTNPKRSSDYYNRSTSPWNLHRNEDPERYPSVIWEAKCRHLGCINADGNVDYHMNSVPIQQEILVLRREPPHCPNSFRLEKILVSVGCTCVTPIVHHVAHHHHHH

human IL-17F [8] = target: T5, human IL-17F (human, UniProt Q96PD4 31-163); assay: cell-based or functional assay
T5 sequence: T2 sequence

Cynomolgus monkey IL-17A = Cynomolgus monkey IL-17A (Cynomolgus monkey, UniProt A0A2K5TTB0 24-155); assay: cell-based or functional assay
Chain of Cynomolgus monkey IL-17A (A0A2K5TTB0 entry or part of it): as the sequence (Q16552 24-155 limits assumed, one chain of several) above, with T3A, P8S, N34S, I77V, N78K, P104R counted along it

Cynomolgus monkey IL-17F [9] = target: T6, Cynomolgus monkey IL-17F (Cynomolgus monkey, UniProt G7P4V0 31-163); assay: cell-based or functional assay
T6 sequence: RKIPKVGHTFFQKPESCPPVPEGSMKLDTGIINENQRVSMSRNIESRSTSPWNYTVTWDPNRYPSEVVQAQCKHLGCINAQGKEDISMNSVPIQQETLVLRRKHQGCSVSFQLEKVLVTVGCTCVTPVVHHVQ

human IL-17A [10] = target: T4, human IL-17A; assay: KinExA, 300 pM Nanobody
Method: (§3) The affinity of a limited set of formatted Nanobodies was determined using the KinExA.

human IL-17F [11] = target: T5, human IL-17F; assay: KinExA, 300 pM Nanobody
Method: as §3

human IL-17A [12] = target: T4, human IL-17A; assay: competition ELISA IL17A-RA
Method: To this end, IL-17RA, respectively IL-17RC was coated at a concentration of 1 μg/ml in PBS.

human IL-17F [13] = target: T7, human IL-17F (human, UniProt Q96PD4 31-163); assay: AlphaScreen hIL-17F-IL-17RC; vs IL17MS13E02
T7 construct: made in Hek293 cells (GenBank AF384857); also called hIL-17F; hIL17F
T7 sequence: T2 sequence

human IL-17F [14] = target: T7, human IL-17F; assay: SPR (Biacore) off-rate
Cynomolgus monkey IL-17F [15] = target: T8, Cynomolgus monkey IL-17F (Cynomolgus monkey, UniProt G7P4V0 31-163); assay: SPR (Biacore) off-rate
T8 construct: also called cyno IL-17F; cIL-17F
T8 sequence: T6 sequence

human IL-17F [16] = target: T7, human IL-17F; assay: cell-based or functional assay; remark: listed apart in the source
Cynomolgus monkey IL-17F [17] = target: T8, Cynomolgus monkey IL-17F; assay: cell-based or functional assay; remark: listed apart in the source
human IL-17F [18] = target: T7, human IL-17F; assay: AlphaScreen IL-17F-IL-17RC; vs IL17MS16A04
human IL-17A [19] = target: T4, human IL-17A; assay: SPR
[20] = target: T9, human IL-17A/F heterodimer (human, UniProt Q16552 24-155; Q96PD4 31-163, limits assumed); assay: SPR
T9 construct: produced in E. coli, bought from R&D Systems (Cat 5194-IL/CF); also called hIL-17A/F
T9 sequence (Q16552 24-155 limits assumed, one chain of several): as the sequence (Q16552 24-155 limits assumed, one chain of several) above

human IL-17A [21] = target: T4, human IL-17A; assay: ELISA, coated IL-17A
Method: (§4) Binding of a selected panel of anti-IL-17 Nanobodies to IL-17 of other species was assessed using a binding ELISA. […] HRP (horseradish peroxidase) conjugated anti-myc (Serotec, MCA 2200P) was used for detection using esTMB as substrate.

marmoset IL-17A = target: T10, marmoset IL-17A (marmoset, IL-17A is a disulfide-linked homodimer. One chain is given.); assay: ELISA, coated IL-17A
T10 chain: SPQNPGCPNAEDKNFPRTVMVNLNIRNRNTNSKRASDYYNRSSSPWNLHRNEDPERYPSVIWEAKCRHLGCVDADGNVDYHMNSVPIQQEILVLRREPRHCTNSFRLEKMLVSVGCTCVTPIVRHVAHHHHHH
Method: as §4

mouse IL-17A = target: T11, mouse IL-17A (mouse, UniProt Q62386 26-158); assay: ELISA, coated IL-17A
T11 sequence (looked up): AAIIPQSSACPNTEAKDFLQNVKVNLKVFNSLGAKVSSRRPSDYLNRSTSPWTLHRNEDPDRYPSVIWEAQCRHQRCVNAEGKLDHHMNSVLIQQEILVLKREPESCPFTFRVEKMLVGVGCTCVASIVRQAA
Method: as §4

rat IL-17A = target: T12, rat IL-17A (rat, UniProt Q61453 18-150, limits assumed); assay: ELISA, coated IL-17A
T12 sequence (looked up): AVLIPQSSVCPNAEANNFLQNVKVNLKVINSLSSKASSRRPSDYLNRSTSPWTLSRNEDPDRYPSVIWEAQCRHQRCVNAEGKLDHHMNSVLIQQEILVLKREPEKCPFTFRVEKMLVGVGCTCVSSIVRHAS
Method: as §4

guinea pig IL-17A = guinea pig IL-17A (guinea pig); assay: ELISA, coated IL-17A
Method: as §4

human IL-17F [22] = target: T5, human IL-17F; assay: ELISA, coated IL-17F;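 note: binding ELISA on coated antigen from various species, with bound Nanobodies revealed by an HRP-linked anti-myc antibody and esTMB substrate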
Method: as §4

marmoset IL-17F = target: T13, marmoset IL-17F (marmoset, UniProt A6N6I9 31-163); assay: ELISA, coated IL-17F;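 note: binding ELISA on coated antigen from various species, with bound Nanobodies revealed by an HRP-linked anti-myc antibody and esTMB substrate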
T13 sequence (looked up): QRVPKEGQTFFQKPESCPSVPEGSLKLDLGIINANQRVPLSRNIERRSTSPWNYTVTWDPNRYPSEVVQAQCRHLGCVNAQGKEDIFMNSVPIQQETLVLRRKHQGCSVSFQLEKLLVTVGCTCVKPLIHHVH
Method: as §4

human IL-17A [23] = target: T4, human IL-17A; assay: KinExA, 600 pM Nanobody
human IL-17A [24] = target: T4, human IL-17A; assay: AlphaScreen IL-17A-IL-17RA, average
human IL-17A [25] = target: T4, human IL-17A; assay: SPR, IL-17A-Nanobody complex over captured IL-17RA
From the text: The receptor (IL-17RA or IL-17RC) was captured via its human Fc-tail by an anti-human IgG-Fc antibody coated on the chip.

mouse IL-17F = target: T14, mouse IL-17F (mouse, UniProt Q7TNI7 29-161); assay: ELISA, coated IL-17F;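 note: binding ELISA on coated antigen from various species, with bound Nanobodies revealed by an HRP-linked anti-myc antibody and esTMB substrate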
T14 sequence (looked up): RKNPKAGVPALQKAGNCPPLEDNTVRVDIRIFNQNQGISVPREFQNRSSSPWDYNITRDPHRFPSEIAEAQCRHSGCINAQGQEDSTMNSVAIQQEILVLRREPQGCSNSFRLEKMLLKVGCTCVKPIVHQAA
Method: as §4

rat IL-17F = target: T15, rat IL-17F (rat, UniProt Q5BJ95 29-161); assay: ELISA, coated IL-17F;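 note: binding ELISA on coated antigen from various species, with bound Nanobodies revealed by an HRP-linked anti-myc antibody and esTMB substrate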
T15 sequence (looked up): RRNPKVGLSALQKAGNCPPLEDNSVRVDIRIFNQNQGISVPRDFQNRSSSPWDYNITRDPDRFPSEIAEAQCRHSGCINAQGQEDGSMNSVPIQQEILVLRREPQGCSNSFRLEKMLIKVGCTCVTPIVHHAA
Method: as §4

human IL-17A [26] = target: T4, human IL-17A; assay: KinExA, 200 pM Nanobody

T1 sequence (Q16552 other isoform, or with tags, fused parts or gaps): as the sequence (Q16552 other isoform, or with tags, fused parts or gaps) above

B1: 01G03 (VHH)
VHH: EVQLVESGGGLVQAGGSLRLSCAASERTISNYDMGWFRQAPGKERELIAADISWSALNTNYADSVKGRFTISRDNAKNMVYLQMNNLKPEDTAVYYCAARRSGYASFDNWGQGTQVTVSS
notes: Class 1 Nanobody (anti-IL-17A); not shown: c-myc, His6 tag
Human IL-17A [1]
  IL-17A-induced IL-6 production in HT-1080 cells, Emax: 85.7%
  IL-17A-induced IL-6 production in HT-1080 cells, IC50: 68.3 nM
Human IL-17A [2]
  IC50: 0.325 nM
Human IL-17A [3]
  IC50: 1.15 nM
Human IL-17A [4]
  koff: 0.00045 s⁻¹
Human IL-17F [5]
  binding result: no binding
[6]
  binding result: no binding

B2: 03B08 (VHH)
VHH: EVQLVESGGGLVQAGGSLRLSCAASGFTFDDYAIGWFRQAPGKEREGVSCISSSDGSIYYADSVKGRFTISSDNAKNTVYLQMNSLKPEDTAVYHCARFGRTGWAEECVDYDYWGQGTQVTVSS
notes: as for B1
Human IL-17A [1]
  IL-17A-induced IL-6 production in HT-1080 cells, Emax: 98.5%
  IL-17A-induced IL-6 production in HT-1080 cells, IC50: 3.6 nM
Human IL-17A [2]
  IC50: 0.08 nM
Human IL-17A [3]
  IC50: 0.384 nM
Human IL-17A [4]
  koff: 0.0001 s⁻¹
Human IL-17F [5]
  binding result: no binding
[6]
  binding result: no binding

B3: 13B03-SH-Fc (Fc fusion, not shown: a dimerising Fc or GST)
chain: EVQLVESGGGSVQAGDSLRLSCAASGRANSINWFGWFRQTPGKEREFVAGIRWSDAYTEYANSVKGRFTISRDNAKNTVDLQMDSLKPEDTAVYYCVLDLSTVRYWGQGTQVTVSSEPKSSDKTHTCPPCP
notes: bivalent Fc fusion from Hek-293-6E cells; signal peptide left out; also called MSB0010493; 13B03VHH-SH-Fc
Human IL-17A [7]
  Emax, hIL-17A induced IL-6, HT-1080, without HSA: 100%
  IC50, hIL-17A induced IL-6, HT-1080, without HSA: 0.19 nM
Human IL-17F [8]
  IC50, hIL-17F induced IL-6, HT-1080, without HSA: 5.8 nM
Cynomolgus monkey IL-17A
  IC50, Cyno IL17A, HT-1080 bioassay: 0.21 nM
Cynomolgus monkey IL-17F [9]
  IC50, Cyno IL17F, HT-1080 bioassay: 3.8 nM
Human IL-17A [10]
  Kd: 0.0002 nM
Human IL-17F [11]
  Kd: 0.132 nM
Human IL-17A [12]
  IC50: 0.02 nM

B4: IL17MS3071 (VHH)
VHH: EVQLVESGGGLVQPGGSLRLSCAASGRTYDALGWLRQAPGKEREFVAAISGSGDDTYYADSVKGRFTISRDNSKNTLYLQMNSLRPEDTAVYYCATRRGLYYVWDANDYENWGQGTLVTVSS
notes: variant of IL17MS13E02; Kabat numbering
Human IL-17F [13]
  IC50 fold difference vs WT: 0.3 fold

B5: IL17MS3063 (VHH)
VHH: DVQLVESGGGLVQPGGSLRLSCAASGRTFSSYVVGWFRQAPGKEREFIGAISGSGESIYYAVSEKGRFTISRDNSKNTLYLQMNSLRPEDTAVYYCTADQEFGYLRFGRSEYWGQGTLVTVSS
notes: variant of IL17MS16A04; Kabat numbering
Human IL-17F [14]
  koff: 0.000655 s⁻¹
Cynomolgus monkey IL-17F [15]
  koff: 0.00111 s⁻¹
Human IL-17F [16]
  IC50 cell based assay hIL-17F: 14 nM
Cynomolgus monkey IL-17F [17]
  IC50 cell based assay cyno IL-17F: 34.2 nM
Human IL-17F [18]
  IC50 fold difference vs WT: 3.7 fold

B6: 04G01 (VHH)
VHH: EVQLVESGGGLVQAGGSQRLSCTASGTIVNIHVMGWYRQAPGKQRELVALIFSGGSADYADSVKGRFTISRDNAKNTVYLEMNSLKAEDTAVYYCAAEIGYYSGGTYYSSEAHWGQGTQVTVSS
notes: Class 2; also called IL17MS04G01
Human IL-17A [19]
  koff: 0.00018 s⁻¹ and 0.000116 s⁻¹
[20]
  koff: 0.00023 s⁻¹ and 0.00017 s⁻¹
Human IL-17A [21]
  OD: 1.9 OD
Marmoset IL-17A
  OD: 1.93 OD
Mouse IL-17A
  OD: -0.001 OD
Rat IL-17A
  OD: 0.004 OD
Guinea pig IL-17A
  OD: 0.008 OD
Human IL-17F [22]
  OD: -0.016 OD
Marmoset IL-17F
  OD: 0.0005 OD
Human IL-17A [23]
  Kd: 0.0134 nM
Human IL-17A [24]
  IC50: 0.093 nM
Human IL-17A [25]
  % Biacore binding (IL-17A-NB)-IL-17RA: -0.43%

B7: 01A01 (VHH)
VHH: EVQLVESGGGLVQAGGSLRLSCAASGFTFDDYDIGWFRQAPGKEREGVSCFTSSDGRTFYADSVKGRFTVSADNAKNTVYLQMNSLEPEDTAVYFCAAVNTFDESAYAAFACYDVVRWGQGTQVTVSS
notes: Class 4
Human IL-17A [21]
  OD: 1.83 OD
Marmoset IL-17A
  OD: 1.84 OD
Mouse IL-17A
  OD: -0.003 OD
Rat IL-17A
  OD: 0.004 OD
Guinea pig IL-17A
  OD: 0.008 OD
Mouse IL-17F
  OD: -0.0005 OD
Rat IL-17F
  OD: 0.0005 OD
Human IL-17A [26]
  Kd: 0.0013 nM
Human IL-17A [25]
  % Biacore binding (IL-17A-NB)-IL-17RA: -1.04%
